Source: US6051217, “Therapeutic uses of interleukin-3 (IL-3) multiple mutation polypeptides” (G. D. Searle & Co., dated 2000)

T1: hIL-3 receptor (human, UniProt P26951)
T1 sequence: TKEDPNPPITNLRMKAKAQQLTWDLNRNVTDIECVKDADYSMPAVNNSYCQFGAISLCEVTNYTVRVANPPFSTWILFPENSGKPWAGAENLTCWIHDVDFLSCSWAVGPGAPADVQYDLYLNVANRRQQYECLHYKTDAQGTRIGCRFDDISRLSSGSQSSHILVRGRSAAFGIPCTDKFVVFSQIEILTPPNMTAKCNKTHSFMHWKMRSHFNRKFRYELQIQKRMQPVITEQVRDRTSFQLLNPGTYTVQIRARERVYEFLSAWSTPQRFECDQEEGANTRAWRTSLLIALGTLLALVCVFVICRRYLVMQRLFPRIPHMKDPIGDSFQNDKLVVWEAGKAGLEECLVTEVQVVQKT


Target: T1, hIL-3 receptor
Experiment: cell-based or functional assay

Row | Relative Biological Activity (AML 193 proliferation) | Binder
1 | 19 EC50 (1-133)hIL-3 / EC50 mutant | pMON13420 polypeptide (ligand) MANCSIMIDEAIHHLKRPPAPSLDPNNLNDEDVSILMDRNLRLSNLESFVRAVKNLENASGIEAILRNLQPCLPSATAAPSRHPIIIKAGDWQEFREKLTFYLVTLEQAQEQQ
2 | 10 EC50 (1-133)hIL-3 / EC50 mutant | pMON13432 polypeptide (ligand) MANCSIMIDEAIHHLKRPPAPSLDPNNLNDEDMSILMDRNLRLPNLESFVRAVKNLENASGIEAILRNLQPCLPSATAAPSRHPIIIKAGDWQEFREKLTFYLVTLEQAQEQQ
3 | 0.5 EC50 (1-133)hIL-3 / EC50 mutant | pMON13421 polypeptide (ligand) MANCSIMIDEAIHHLKRPPAPSLDPNNLNDEDMSILMDRNLRLSNLESFVRAVKNLENASGIEAILRNLQPCLPSATAAPSRHPIIIKAGDWQEFREKLTFYLVTLEQAQEQQ
4 | 0.5 EC50 (1-133)hIL-3 / EC50 mutant | pMON13418 polypeptide (ligand) MANCSIMIDEIIHHLKRPPNPLLDPNNLNSEDMDILMERNLRTPNLLAFVRAVKHLENASGIEPILSNLQPCVPYWTAPPSRTPITIKAGDWQEFREKLTFYLVTLEQAQEQQ
5 | 0.09 EC50 (1-133)hIL-3 / EC50 mutant | pMON13400 polypeptide (ligand) MANCSIMPDEAIHHLKIPPNPSLDSANLNSEDVSILMERNLRTPNLLAFVRAVKHLENASGIEAILRNLQPCLPSATAAPSRHPIIIKAGDWQEFREKLTFYLVTLEQAQEQQ
6 | > 0.0003 EC50 (1-133)hIL-3 / EC50 mutant | pMON13426 polypeptide (ligand) MANCSIAIDEIIHHLKRPPNPLLDPNNLNSEDVDILDERNLRTPNLLAFVRAVKHLENASGIEAILRNLQPCLPSATAAPSRHPIIIKAGDWQEFREKLTFYLVTLEQAQEQQ
7 | 0.4 EC50 (1-133)hIL-3 / EC50 mutant | pMON13410 polypeptide (ligand) MANCSIMIDEIIHHLKRPPNPLLDPNNLNSEDMDILDERNLRTPNLLAFVRAVKHLENASGIEAILRNLQPCLPSATAAPSRHPIIIKAGDWQEFREKLTFYLVTLEQAQEQQ
8 | 15 EC50 (1-133)hIL-3 / EC50 mutant | pMON13409 polypeptide (ligand) MANCSIMIDEIIHHLKRPPNPLLDPNNLNSEDMDILLERNLRTPNLLAFVRAVKHLENASGIEAILRNLQPCLPSATAAPSRHPIIIKAGDWQEFREKLTFYLVTLEQAQEQQ
9 | 0.4 EC50 (1-133)hIL-3 / EC50 mutant | pMON13423 polypeptide (ligand) MANCSIIIDEIIHHLKRPPNPLLDPNNLNSEDVDILIERNLRTPNLLAFVRAVKHLENASGIEAILRNLQPCLPSATAAPSRHPIIIKAGDWQEFREKLTFYLVTLEQAQEQQ
10 | 4 EC50 (1-133)hIL-3 / EC50 mutant | pMON13414 polypeptide (ligand) MANCSIIIDEIIHHLKRPPNPLLDPNNLNSEDMDILMERNLRTPNLLAFVRAVKHLENASGIEAILRNLQPCLPSATAAPSRHPIIIKAGDWQEFREKLTFYLVTLEQAQEQQ
11 | 3 EC50 (1-133)hIL-3 / EC50 mutant | pMON13424 polypeptide (ligand) MANCSIAIDEIIHHLKRPPNPLLDPNNLNSEDVDILLERNLRTPNLLAFVRAVKHLENASGIEAILRNLQPCLPSATAAPSRHPIIIKAGDWQEFREKLTFYLVTLEQAQEQQ
12 | 4 EC50 (1-133)hIL-3 / EC50 mutant | pMON13415 polypeptide (ligand) MANCSIIIDEIIHHLKRPPNPLLDPNNLNSEDVDILMERNLRTPNLLAFVRAVKHLENASGIEAILRNLQPCLPSATAAPSRHPIIIKAGDWQEFREKLTFYLVTLEQAQEQQ
13 | 9 EC50 (1-133)hIL-3 / EC50 mutant | pMON13405 polypeptide (ligand) MANCSIAIDEIIHHLKRPPNPLLDPNNLNSEDVDILMERNLRTPNLLAFVRAVKHLENASGIEAILRNLQPCLPSATAAPSRHPIIIKAGDWQEFREKLTFYLVTLEQAQEQQ
14 | 16 EC50 (1-133)hIL-3 / EC50 mutant | pMON13407 polypeptide (ligand) MANCSIMIDEIIHHLKRPPNPLLDPNNLNSEDVDILMERNLRTPNLLAFVRAVKHLENASGIEAILRNLQPCLPSATAAPSRHPIIIKAGDWQEFREKLTFYLVTLEQAQEQQ
15 | 6 EC50 (1-133)hIL-3 / EC50 mutant | pMON13425 polypeptide (ligand) MANCSIIIDEIIHHLKRPPNPLLDPNNLNSEDVDILLERNLRTPNLLAFVRAVKHLENASGIEAILRNLQPCLPSATAAPSRHPIIIKAGDWQEFREKLTFYLVTLEQAQEQQ
16 | 7 EC50 (1-133)hIL-3 / EC50 mutant | pMON13408 polypeptide (ligand) MANCSIMIDEIIHHLKRPPNPLLDPNNLNSEDMDILIERNLRTPNLLAFVRAVKHLENASGIEAILRNLQPCLPSATAAPSRHPIIIKAGDWQEFREKLTFYLVTLEQAQEQQ
17 | 0.4 EC50 (1-133)hIL-3 / EC50 mutant | pMON13422 polypeptide (ligand) MANCSIAIDEIIHHLKRPPNPLLDPNNLNSEDVDILIERNLRTPNLLAFVRAVKHLENASGIEAILRNLQPCLPSATAAPSRHPIIIKAGDWQEFREKLTFYLVTLEQAQEQQ
18 | 20 EC50 (1-133)hIL-3 / EC50 mutant | pMON13402 polypeptide (ligand) MANCSIMIDELIHHLKIPPNPSLDSANLNSEDVSILMERNLRTPNLLAFVRAVKHLENASGIEAILRNLQPCLPSATAAPSRHPIIIKAGDWQEFREKLTFYLVTLEQAQEQQ
19 | 5 EC50 (1-133)hIL-3 / EC50 mutant | pMON13406 polypeptide (ligand) MANCSIAIDEIIHHLKRPPNPLLDPNNLNSEDMDILMERNLRTPNLLAFVRAVKHLENASGIEAILRNLQPCLPSATAAPSRHPIIIKAGDWQEFREKLTFYLVTLEQAQEQQ
20 | 0.03 EC50 (1-133)hIL-3 / EC50 mutant | pMON13403 polypeptide (ligand) MANCSIMIDEIIHHLKRPPNPLLDPNNLNSEDMDILMDSNLRTPNLLAFPHASKQLENASGIEAILRNLQPCLPSATAAPSRHPIIIKAGDWQEFREKLTFYLVTLEQAQEQQ
21 | 0.6 EC50 (1-133)hIL-3 / EC50 mutant | pMON13413 polypeptide (ligand) MANCSIMIDEIIHHLKRPPNPLLDPNNLNSEDMDILMERNLRTPNLLAFVRAVKHLENASGIEAILRNLQPCLPSATAAPSRHPIIIKAGDWQEFRLKLQFYLSSLEQAQEQQ
22 | 0.015 EC50 (1-133)hIL-3 / EC50 mutant | pMON13419 polypeptide (ligand) MANCSIMIDEIIHHLKRPPNPLLDPNNLNSEDMDILMDSNLLTPNLLAFPHASKQLENASGIEAILRNLQPCLPSATAAPSRHPIIIKAGDWQEFRLKLQFYLSSLEQAQEQQ
23 | 1.2 EC50 (1-133)hIL-3 / EC50 mutant | pMON13411 polypeptide (ligand) MANCSIMIDEIIHHLKRPPNPLLDPNNLNSEDMDILMERNLRTPNLLAFVRAVKHLENASGIEAILRNLQPCLPSATAAPSRHPIIIKAGDWQEFRLKLQFYLSTLEQAQEQQ
24 | 0.5 EC50 (1-133)hIL-3 / EC50 mutant | pMON13412 polypeptide (ligand) MANCSIMIDEIIHHLKRPPNPLLDPNNLNSEDMDILMERNLRTPNLLAFVRAVKHLENASGIEAILRNLQPCLPSATAAPSRHPIIIKAGDWQEFRLKLQFYLSTL
